Here are results for one molecule from publication PMC4533228 (Cell Reports, 2015).

The experiment deals with T1, polyUb-E6AP (resin-bound E6AP autoubiquitinated with K48-linked polyubiquitin chains) (UniProt Q05086 1-875; P0CG48 1-76, K48-linked polyubiquitin chains of undefined length attached by autoubiquitination; sites not stated | ubiquitins joined to each other by K48 isopeptide linkages and to E6AP; chain length undefined).
T1 construct: HECT E3 ligase E6AP; ubiquitin, the mature 76-residue protein, wild type; Covalent conjugate held on resin; also called K48-polyUb conjugates; polyubiquitinated E6AP; source: E3 enzyme expressed in E. coli and purified
As to the kind of experiment: pull-down; resin-bound polyUb-E6AP and polyUb-Ube2SΔ incubated with 100 nM purified Rpn10-UIM, hHR23A or hHR23B for 30 min at 4°C, washed; bound proteins by immunoblot for His (Rpn10) or hHR23A/B. The conditions noted are these: both partners purified.

B1: recombinant Ub-interacting motif (UIM) of Rpn10 (domain or fragment)
chain: MLGLGASDFEFGVDPSADPELALALRVSMEEQRQRQEEEARRAAAASAAEAGIATTGTEDSDDALLKMTISQQEFGRTGLPDLSSMTEEEQIAYAMQMSLQGAEFGQAESA
Take B1: the “fold binding relative to K11 chains (polyUb-Ube2SΔ), ImageJ quantification” value was approximately 4 fold.
